Test results taken from article doi:10.1101/2024.10.16.618688.
“And” between values parts separate entries of the source, which are not always exact repeats. Identical values can stand only once.

How the values were obtained:
[1] = target: full-length neuroligin 2 (NL2), wild type (mouse) (UniProt Q69ZK9); experiment: cryo-EM structure
[2] = target: NRX1β ECD (aa 81 - 311) labeled with Alexa Fluorophore 488 (mouse) (UniProt P0DI97); experiment: fluorescence polarisation

Row | Substance | stoichiometry N [1] | Kd [2] [µM] | stoichiometry N (NRX1β per NL2 dimer) [1]
1 | full-length neuroligin 2 (NL2), wild type (from UniProt Q69ZK9 15-836) (natural protein) | 2 | 6 | 
2 | full-length neurexin 1β (NRX1β), wild type (from UniProt P0DI97 47-468) (natural protein) |  |  | 2 and 1
3 | NL2 H279Y G282K mutant (from UniProt Q69ZK9 170-836) (natural protein) |  | 0.3 | 
